Tests used:
Experiment in all cases: SPR
[1] = target: HIR-1 ectodomain (purified) (C. elegans) (UniProt O76385)
[2] = target: ZIG-4 (purified, SPR) (C. elegans) (UniProt G5ECB1)
[3] = target: ZIG-5 (purified, SPR) (C. elegans) (UniProt Q9XXD7)
ZIG-5 (purified, SPR) = target: T1, ZIG-5 (purified, SPR) (C. elegans, UniProt Q9XXD7 26-260)
T1 sequence: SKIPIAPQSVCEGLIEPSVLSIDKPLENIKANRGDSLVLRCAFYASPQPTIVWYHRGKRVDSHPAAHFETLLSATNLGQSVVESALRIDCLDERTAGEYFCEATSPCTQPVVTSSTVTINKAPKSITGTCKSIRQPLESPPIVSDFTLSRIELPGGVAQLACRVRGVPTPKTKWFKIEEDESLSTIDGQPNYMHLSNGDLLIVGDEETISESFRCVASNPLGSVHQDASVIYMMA

ZIG-4 (purified, SPR) = target: T2, ZIG-4 (purified, SPR) (C. elegans, UniProt G5ECB1 17-253)
T2 sequence: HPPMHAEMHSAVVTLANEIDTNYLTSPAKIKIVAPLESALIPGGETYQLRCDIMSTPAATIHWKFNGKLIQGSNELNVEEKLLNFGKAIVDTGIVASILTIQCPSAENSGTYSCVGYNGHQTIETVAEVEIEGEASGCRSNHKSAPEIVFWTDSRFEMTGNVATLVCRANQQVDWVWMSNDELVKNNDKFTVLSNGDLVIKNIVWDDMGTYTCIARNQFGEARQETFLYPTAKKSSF

[4] = target: NRX-1 LNS6 domain (purified) (C. elegans)

In the case of “B0222.11 (purified) (from UniProt Q4PIU5) (ligand)”, the Kd [1] is reported as 0.5 nM.

In the case of INS-1 (purified, SPR) (ligand), the Kd [2] is reported as > 1000 nM and the Kd [3] is reported as 3 nM.

B1: INS-6 (purified, SPR) (ligand)
chain: VPAPGETRACGRKLISLVMAVCGDLCNPQEGKDIATECCGNQCSDDYIRSACCP
B1 was tested, and the Kd (ZIG-5 (purified, SPR)) was > 1000 nM and the Kd (ZIG-4 (purified, SPR)) was 0.056 nM.

B2: NLG-1 ectodomain (purified) (receptor)
chain: YDVRSVTTSWGMVRGEVVSPEGDDLPPVAQYLGIPYGVAPTGQYRFNMAISAAKWTHMPKDARKVSPVCIQTDMPELSETKAFKHTSAQRFDFNHRLLPHLKKQSEDCLYMNIYVPERLEISRDNYLPVMVIVHGEEYGWGTGNAFNGTTLAAYGHIIVVTLNYRLGVFGFLGRCESSSCSGNSGISDLVSALTMLNVILPSFGGDSKSVTLAGWGSGASLVSLLMASPLTQPGRRLFRRAILLDGSALSPWAISQNPQQYFMQLAEELACAPKNRTSSFNDNVDTIVRCMQVHSSENITKAVLKIDVPTFLSGFAPIVDGQLIPNKPQVSFSTQYGSLFREIDLLVGISSNPSHHMISNEDLKVGISKEKRMRIFRSLVRNLYDFHREEILASIINEYTDWENPRDHPKSIRNGVLNALSDVLYTAPLIETLRSHSADEVRKEANTFMFAFAHETRSWSQEQPNSGIRGSLSGDIVPYIFGYPLAQGDSEERLYSGFNTDDKGISKVMMHYVSNFVKSGDPSKPNPMSKNFPMGDVFHSTAWPQFDQPNREAYLEITDRPRVKNYYRNAQVGFWNNFIPQLHKNGKETEPVGEEHHLLSDHFRKDSYFGKTRHFSSYANLPFPPPPMPPSPPPELTTKPKPSESPTTLQTTTESEKAAAGSFTGKAL
Molecule B2 has a Kd [4] of 48000 nM.
